Assay results taken from the supplement of paper PMC9170038.

Tested on: MS2 coat protein
Test: apparent KD of MS2 coat protein; higher = weaker reporter binding
Conditions: Eterna round: R107
Protocol: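 RNA-MaP round R107: designed RNA switches with theophylline, tryptophan, arginine or FMN aptamers are transcribed on-chip within common flanks. They are titrated with SNAP-549-labelled MS2 coat protein in RNA-MaP buffer (100 mM Tris pH 7.5, 80 mM KCl, 4 mM MgCl2), without ligand or with the indicated ligand. Median apparent KD per design.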

[1] = input ligand: theophylline 20 uM
[2] = input ligand: theophylline 2 mM
[3] = input ligand: tryptophan 2.4 mM

Sequence	apparent KD of MS2 coat protein (input ligand: arginine 13.2 mM) [nM]	apparent KD of MS2 coat protein (input ligand: none) [nM]	apparent KD of MS2 coat protein [1] [nM]	apparent KD of MS2 coat protein [2] [nM]	apparent KD of MS2 coat protein [3] [nM]
GAUAUGAUAAGAAGGAGCGUCGAAAAUGGGUAAACAUGAGGAUCACCCAUGUAAAGGGAACGACAGGUAGGUCGCUUAUUAUAUC [AstromonsSSArgB#19]	146	160	190	251	134
AAUACAUGAGGAUCACCCAUGUAAGCUGAAGGAGCGCUGGAAACAGCAGGUAGGUCGCAGCUGCGACCUUGGUGAUCUAGGUCGC [(M1)-(M2)-(Arg1)-(Arg2)-(A)'-(M)'-(A)''_Design7]	17.5	36.6	35.8	46.7	24.3
UCACGACGCAACGUGAGAUAAUGAACAGAAGGAGCGAGGAGAGCCUCAGGUAGGUCGCUGACAUGAGGAUCACCCAUGUAUUACA [Same State Arginine A GF6]	63.8	82.8	84.2	80	65.2
UGUAUGUGAUCUGAUACCAGCUUUGAUAACCUGAGGAUCACCCUGGUAAGGCGAAAGCCAAGCCCUUGGCAGCAGAUCGCAUACU	40.1	34.5	34.5	21.9	37.3
AGUGUUAUAACUGAUACCAGACUCUCAUGUUUACAUGAGGAUCACCCAUGUUAUUUCUUUGUCCCUUGGCAGCAGAAUUAACACA [JR_SSTheophyB_Sub010]	152		175		215
UUAAUCAUAUAUGAAAACAUAUAUGCAGAAGGAGCGUGAUAAAACACAGGUAGGUCGCUGAAGGGAACAUGAGGAUCACCCAUGU [AstrosSSArgA#2]	47.4	24.8	49	31.5	32.4
AAUUUCGUAGGUAAAAGUUUAGAAACUGAAGGAGCGUGGUAUUACACAGGUAGGUCGCAGAUUUUACAUGAGGAUCACCCAUGUU [JR_SSArginiA_Sub008]	20.6	22.1	22	21.7	22.8
AGAUGAGUCACGGCCGCCACUCUUCACAGGUUCACCCUUGGUUAACAUGAGGAUCACCCAUGUGGGAGGACCGGGUGAUGAGCAU [XTryp B #5]	14.2		17.3	15.6	
UUACAUGAGGAUCACCCAUGUCAUACAGAAGGAGCGUCACAUAAGACAGGUAGGUCGCUGUUAUUUUUUACUAUUAUAUCCUCUA [JR_Nu_ExcArginiA_Sub030]	25	30.8	45.8	31.7	25.9
UGUAUGGACUGAAGGAGCGCCUCAAAAUAACAUGAGGAUCACCCAUGUAGGCGAAAGCCUGGGCAGGUAGGUCGCAGUCCAUACU [ArgBX 2 #StaticStem #MS2Late]	20.9	12.9	21.4	13.4	12.4
AGAUUCGACACGGCCGCCACUCGUGGAGGAUUACCGAGUGUCGAACAUGAGGAUCACCCAUGUACGAGGACCGGGUGUUGAGUCU [XTryp B #15]	23.5	27.3	32.2	28.5	179
ACAUUGCGCUCGGCCGCCACUGGCUAUAGAUUUAUAGCAUUAAUGAACAUGAGGAUCACCCAUGUCAGGACCGGGAGCGAACCAU [SSTryp B #8]	12.1		17.2	13.2	
GACAUGAGGAUCACCCAUGUACCGCGAGAAGGAGCGCGGAUAAACGCAGGUAGGUCGCUCGUGGGCUCACAUUCAAUCGUAAGCU [Azaesisma]	50.9	98.6	116	165	77.7
GUAUUAAGAAAACUUGAUACAGUGGGUGAACGAGGACCGGUACGGCCGCCACUCGGACAUGAGGAUCACCCAUGUCCAUGUGAAA [AstrosExyTryA#11]	17.4	19.1	18.6	17.2	37.7
AGAAUAACAUGAGCAAAGCUCAUGUGCGAAGGAGCGGCGGAAACGCCAGGUAGGUCGCGCACAUGAGCAUCAGCCAUGUGUACCA [Omei Arginine B SS A v5]	11.5	30.7	201	65.8	58.9
AUCACUGUGAAAGAUACCAGCGCCCUACCUAUCUUCUGUUACAUGAGGAUCACCCAUGUUCGCCCUUGGCAGCUUGAGAUGGAUC [theeternabot_exclusion_MS2_Theo_B_11]	44.2		75.1		44.9
GUGAGGUUUGAUGAUACCAGAUGUGGUGGGAACAUGAGGAUCACCCAUGUUGUGAAACAGGUCCCUUGGCAGCAUGAGAGAGCUU [TheoB-ms2@32]	30.5		89.3		52.7
CGUCGAAACUGAAGGAGCGAGAUGACAACAUUGGGUCUAACAUGAGGAUCACCCAUGUAAUCUCAGGUAGGUCGCGGUGACAACA [Exclusion Arginine B GF 17]	40.1	38.9	48.5	59.6	51.7
AACAUGAGGAUCACCCAUGUAUUGGGUGAUACCAGCCUGAAUAAUGGCCCUUGGCAGCACCACGCUAACUUUAUGUCUGCGAACC [Maus]	39.3		263		83.6
ACAUGAGGAUCACCCAUGUACAUCACCCGACGAGGACCGGUACGGCCGCCACUCGGGUAUAUAUAUACAUCGGGUGGUUUUGCAU [a15jan]	40.7		88.4	40	

Sequence	apparent KD of MS2 coat protein (input ligand: arginine 13.2 mM) [nM]	apparent KD of MS2 coat protein (input ligand: none) [nM]	apparent KD of MS2 coat protein [1] [nM]	apparent KD of MS2 coat protein [2] [nM]	apparent KD of MS2 coat protein [3] [nM]
ACAUGAGGAUCACCCAUGUAUGACUAUCCUCGAGGACCGGUACGGCCGCCACUCGAACGAGUGGCUCGCGAGUGCGCACUUGCGA [5' end]	16.7	13.2	16.7	12.7	11.9
UGUAUGGACUGAAGGAGCGGAUGAUAUCAUGAGGAUCACCCAUGGAAUAAGGCGAAAGCCAUCCAGGUAGGUCGCAGUCCAUACU	45.6	72.7	131	128	82.4
GUCACACAGUAGGAUACCAGCGUGGCUUAUCCCUGAUCGUACAUGAGGAUCACCCAUGUCCGCCCUUGGCAGCCUCCUGCUCGGA [theeternabot_exclusion_MS2_Theo_B_33]	12.4		17.7		11.9
AUACAUGAGGAUCACCCAUGUGAUGGCCGGCGAGGACCGGUACGGCCGCCACUCGUGAUCCGUCCUGAAAGCAAAGCUCUCAACA [Esraleri]	95		85.3	303	
AAAUAGGUAGGAGAUACCAGAUACGUUAACAUGAGGAUCACCCAUGUGUAUGCACUUAGUGUCCCUUGGCAGCUCGAGGAUCUGG [#18 Same State - Theophylline B]	23.3		37		27.4
UACUUGCUGACGGCCGCCACUAGAACAUGAGGAUCACCCAUGUACGGCGGCCGUCAUGGGUGGACUAGGACCGGGUCAGCAAGAU [(Trp1)-(Ms2)-(T)'-(M)'-(Trp2)_Design6]	10.7	12	20.5	13.9	13.2
UUAAAUGUGACGGAUACCAGCGUGUUGUAGAACAUGAGGAUCACCCAUGUAGUGAUCAUGCGCCCUUGGCAGCUGGUAUGUUUGA [7.aA]	189		543		480
AAUGUAUUCCACAUGAGGAUCACCCAUGUGCGAGGACCGGUACGGCCGCCACUCGGUGUUGGGAUCUGUUCUGAAUACAUUAAUG [XTryp A #23]	30.8		37.5	40.3	
ACGACGCAUAGUGAUACCAGUAGAACAUGAGGAUCACCCAUGUCUGUGACGCACAAAUUCUGCCCUUGGCAGCACUAUGCGUCAG [SSTheo B #6]	12.6		18.1		12.1
UCAUAAGUACCGGUCCUCAGAUCCUCAUGACGAGGACCGGUACGGCCGCCACUCGAAACAUGAGGAUCACCCAUGUAAUAAUAUU [Brourdmod11]	19.5		28.5	27.3	
ACAUGAGGAUCACCCAUGUAUGAUGUUCCUCGAGGACCGGUACGGCCGCCACUCGAACGAGUGGCGCGCGAGUGCGCACUCGCGC [aWa]	21.1	15.7	38.8	16.8	14.1
GAGCUGAUGUAGGGUGGAUAUCCUUGAGAUACCAGUACAGAAAUGUACCCUUGGCAGCUCUUCCUUACAUGAGGAUCACCCAUGU [Ex Theophylline A 25]	18.9		23.5		20.4
GCGAUACAUGAGGAUCACCCAUGUGCAGAUACCAGAGGUGCAUGCCUCCCUUGGCAGCUGCGACGCUCUGGCAUCUUGUGGGAUG [Same State Theophylline A GF20]	37.6		86.4		56.9
UGUAUGUGAUCUGAUACCAGAGUGAAUAAACCUGAGGAUCACCCUGGUACGCGAAAGCGACUCCCUUGGCAGCAGAUCGCAUACU	127	163	108	21.8	156
AUAACAUGAGGAUCACCCAUGUAAGCUGAAGGAGCGGACGAAAGUCCAGGUAGGUCGCAGCGUUCCUUCACCUCAUGAGAAGGAG [SSArg-A #30 with U all better]	17.8	22.5	37.5	24	21.6
GAUGAACUAUUUGAUACCAGACAACAUGAGGAUCACCCAUGUGCGCGUCGUCCUCUGCCUGUCCCUUGGCAGCGGAUAGUUUAUC [XTheo B #12]	32.5		124		34.9
AUACAUGAGGAUCACCCAUGUUAUAGUGAAGGAGCGACGUUUAUGUCAGGUAGGUCGCACUGUUGUUUAAUGAUUCUUGGAUCUU [#21 Exclusion - Arginine A]	15.3	13.2	22.5	13.5	16.4
UUGUAUAUGCGAAGGAGCGGGAAAUAUAUAUAUAUAAUCCUAACAUGAGGAUCACCCAUGUCCCAGGUAGGUCGCGCAUAUGUGG [12.G]	34.6	58.8	65.6	68.3	54.9
GGAGUCGGCACGGCCGCCACUGCGGUGGUGUGACAUGAGGAUCACCCAUGUUGUCAUGCGGCCCUUAGGACCGGGUGGCGGUUCC [#1 Exclusion - Tryptophan B Attempt #22 (HarryS)]	28.4	58.7	76.1	82.6	
